This is an account of results in patent US20190062438A1 (CSL, published 2019).

Assay [1] has as its target shCD131 alanine mutants of Ser102, Val104 and Arg364. Put plainly: SPR, Fab over captured mutant. (Surface plasmon resonance follows binding to a sensor surface in real time, without labels.)
Assay [2] deals with T1, soluble Homo sapiens CD131 comprising a C-terminal 6xHis tag (human, UniProt P32927 17-438).
T1 construct: truncated after Ser438, C-terminal 6xHis; also called shCD131; shβc
T1 sequence: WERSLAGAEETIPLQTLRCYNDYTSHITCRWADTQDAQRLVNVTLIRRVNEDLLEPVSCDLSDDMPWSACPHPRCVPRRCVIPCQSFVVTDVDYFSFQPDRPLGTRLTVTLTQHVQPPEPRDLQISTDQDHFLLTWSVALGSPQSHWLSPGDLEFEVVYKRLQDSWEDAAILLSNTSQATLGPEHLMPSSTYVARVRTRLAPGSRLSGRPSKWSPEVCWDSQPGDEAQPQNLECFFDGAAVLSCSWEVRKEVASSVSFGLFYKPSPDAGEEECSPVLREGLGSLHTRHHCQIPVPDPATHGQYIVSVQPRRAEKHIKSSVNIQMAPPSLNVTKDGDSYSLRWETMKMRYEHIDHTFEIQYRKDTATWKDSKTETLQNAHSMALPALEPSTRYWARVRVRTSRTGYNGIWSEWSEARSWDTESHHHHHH
Put plainly: SPR, Fab over captured shCD131. The procedure:
Binding kinetics were measured using SPR with a BIAcore™ A-100 instrument (GE Healthcare Life Sciences). An anti-C-terminal Hexa-His antibody (3H3) was immobilized on spots 1, 2, 4 and 5 of each flow cell of a CM-5 sensor chip (GE Healthcare Life Sciences) using amine-coupling chemistry (116). […] As shβc is a dimer, kinetics assays were performed with shβc captured on the sensor surface, and purified Fab injected as the analyte. Avidity effects were avoided by the use of Fab rather than whole IgG.
(§1) shCD131 was captured on spots 1 and 5 of each flow cell for 2 minutes at a concentration of 0.4 μg/ml. […] For some analysis purified Fab was injected over each flow cell for 3 minutes and dissociation was monitored for a further 10 minutes. Regeneration of the surface was performed after each cycle with a 40 second injection of 25 mM glycine, pH 2.0. The analysis was performed with Fabs at several concentrations between 100 and 0.31 nM, with each concentration analyzed twice and in random order. The analysis was performed at a flow rate of 30 μl/min in HBS-EP buffer (10 mM Hepes, 150 mM NaCl, 3 mM EDTA, 0.005% Tween 20, pH 7.4) at 37° C. Responses from spots 2 and 4 of each flow cell, (in which shβc was not captured, but otherwise treated identically), were subtracted from those of spots 1 and 5 respectively to produce reference subtracted data. Reference subtracted responses from a blank injection comprising buffer alone were subtracted from the resultant sensorgrams to produce double referenced data suitable for kinetic analysis. Double-referenced sensorgrams were fitted using non-linear regression to a model describing 1:1 kinetics, including a term for mass transport limitation. The Rₘₐₓ value was fitted locally to account for slight deviations in the level of sCD131 captured, with association rate (kₐ), dissociation rate (kd) and equilibrium dissociation constant (KD) fitted globally.

The target in the next assay is T2, shCD131 Y365A (human, UniProt P32927 17-438).
T2 construct: C-terminal 6xHis
T2 sequence: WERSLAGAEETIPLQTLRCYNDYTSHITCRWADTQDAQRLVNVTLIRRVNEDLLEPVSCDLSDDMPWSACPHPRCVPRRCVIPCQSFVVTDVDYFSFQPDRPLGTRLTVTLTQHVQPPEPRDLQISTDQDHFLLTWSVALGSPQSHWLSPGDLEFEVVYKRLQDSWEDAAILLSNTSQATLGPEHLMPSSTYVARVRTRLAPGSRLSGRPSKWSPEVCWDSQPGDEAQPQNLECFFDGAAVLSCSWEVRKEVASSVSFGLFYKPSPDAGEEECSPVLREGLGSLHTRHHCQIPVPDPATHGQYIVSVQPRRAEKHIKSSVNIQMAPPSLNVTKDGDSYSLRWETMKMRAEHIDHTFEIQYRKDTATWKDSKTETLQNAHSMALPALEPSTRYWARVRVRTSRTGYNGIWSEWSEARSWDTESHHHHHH
As to the kind of experiment: SPR, Fab over captured mutant. The procedure: As shβc is a dimer, kinetics assays were performed with shβc captured on the sensor surface, and purified Fab injected as the analyte. Avidity effects were avoided by the use of Fab rather than whole IgG.
as §1
Mapping of the shCD131 epitope was performed by measurement of the affinity of Fabs for various alanine point mutants of shCD131 essentially as described above, with the following exceptions. Each shCD131 mutant was captured for 120 seconds at concentrations between 1 and 5 μg/ml. For kinetic analysis, purified recombinant Fabs were injected for 2 minutes, and dissociation was monitored for a further 2 minutes. […] Fab concentrations ranged from 16 μM to 3.9 nM in two-fold dilutions.

Assay [3] concerns the target T1, soluble Homo sapiens CD131 comprising a …. As to the kind of experiment: SPR, kinetics, Fab over captured shCD131.

B1: 9A2 Fab (Fab, V domains shown)
VH: EVQLLESGGGLVQPGGSLRLSCAASGFTFSHYHMLWVRQAPGKGLEWVSSIRSSGGFTYYADSVKGRFTISRDNSKNTLYLQMNSLRAEDTAVYYCARFYDSFFDIWGQGTMVTVSS
VL: DIQMTQSPSSVSASVGDRVTITCRASQGISSWLAWYQQKPGKAPKLLIYAASSLQSGVPSRFSGSGSGTDFTLTISSLQPEDFATYYCQQANSFPITFGQGTRLEIKR
notes: also called recombinant Fab of 9A2
In general, Kd refers to a measure of binding affinity in units of concentration. Broadly, the koff is the first-order rate constant of dissociation. Lower therefore signals a long-lived complex. The kon is the rate constant with which the complex forms. Higher therefore signals fast association. In assay [1], B1 returned a fold reduction of binding relative to WT shCD131 of 3 to 7 fold. In addition, in assay [2], the Kd stood at 49 nM, the koff turned out to be 0.096 s⁻¹ and the association rate constant (kon) amounted to 2e+06 M⁻¹ s⁻¹. The binding result with shCD131 Y365A is listed as “no binding (tested: Fab up to 16 µM)”. Further, the Kd in assay [3] came out at 49 nM.
